Reference: PMC2939854 (2010)
pIC50: −log10 of the molar value.

Biological target: GLP-1 receptor (Rattus norvegicus) (UniProt P32301)
Experiment: competitive cellular ELISA against GLP-1/hIgG2 (INS-1 cells)

GLP-1 receptor (Rattus norvegicus), sequence (P32301 22-463): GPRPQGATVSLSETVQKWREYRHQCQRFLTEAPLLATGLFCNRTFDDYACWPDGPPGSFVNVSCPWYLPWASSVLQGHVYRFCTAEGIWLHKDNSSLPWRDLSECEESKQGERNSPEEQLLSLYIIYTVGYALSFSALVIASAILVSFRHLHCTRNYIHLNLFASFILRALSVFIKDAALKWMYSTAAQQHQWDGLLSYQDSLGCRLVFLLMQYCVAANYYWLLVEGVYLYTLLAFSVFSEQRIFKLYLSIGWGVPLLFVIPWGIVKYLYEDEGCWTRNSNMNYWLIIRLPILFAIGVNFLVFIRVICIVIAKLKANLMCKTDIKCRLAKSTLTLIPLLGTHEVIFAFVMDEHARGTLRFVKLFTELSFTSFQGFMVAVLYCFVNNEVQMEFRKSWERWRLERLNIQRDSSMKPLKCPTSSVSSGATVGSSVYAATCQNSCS
Exendin-4, sequence (P26349 48-86): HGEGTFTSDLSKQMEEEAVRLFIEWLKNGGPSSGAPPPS

Exendin-4 (from UniProt P26349) showed a pIC50 of 8.09.
